Test results reported in patent US20210388087A1 (Chugai, published 2021).

target: T1, Human CD137 ECD (human); experiment: Biacore SPR, vs parent H183/L072
T1 construct: entry includes C-terminal His-tag and biotin acceptor peptide; also called human CD137 extracellular domain; 4-1BB
T1 sequence (chain, as listed by the source limits assumed): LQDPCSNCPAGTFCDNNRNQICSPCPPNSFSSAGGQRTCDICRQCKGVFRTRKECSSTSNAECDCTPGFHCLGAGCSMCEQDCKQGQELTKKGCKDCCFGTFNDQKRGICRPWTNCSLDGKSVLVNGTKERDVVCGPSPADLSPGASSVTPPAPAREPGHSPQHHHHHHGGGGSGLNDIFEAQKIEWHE

Binder	fold change of affinity
H183/L072 VL P95S (antibody, name in Kabat numbering, V domains shown, Dual-Ig) VH: QVQLVESGGGLVQPGRSLRLSCAASGFTFSNAWMHWVRQAPGKGLEWVAQIKDKGNAYAAYYAPSVKGRFTISRDDSKNSIYLQMNSLKTEDTAVYYCHYVHYASASTVLPAFGVDAWGQGTTVTVSS VL: DIVMTQSPLSLPVTPGEPASISCQASQELVHMNRNTYLHWYQQKPGQAPRLLIYKVSNRFPGVPDRFSGSGSGTDFTLKISRVEAEDVGVYYCAQGTSVSFTFGQGTKLEIK	0 fold
H183/L072 VL Q24G (antibody, name in Kabat numbering, V domains shown, Dual-Ig) VH: QVQLVESGGGLVQPGRSLRLSCAASGFTFSNAWMHWVRQAPGKGLEWVAQIKDKGNAYAAYYAPSVKGRFTISRDDSKNSIYLQMNSLKTEDTAVYYCHYVHYASASTVLPAFGVDAWGQGTTVTVSS VL: DIVMTQSPLSLPVTPGEPASISCGASQELVHMNRNTYLHWYQQKPGQAPRLLIYKVSNRFPGVPDRFSGSGSGTDFTLKISRVEAEDVGVYYCAQGTSVPFTFGQGTKLEIK	1 fold
H183/L072 VL Q24K (antibody, name in Kabat numbering, V domains shown, Dual-Ig) VH: QVQLVESGGGLVQPGRSLRLSCAASGFTFSNAWMHWVRQAPGKGLEWVAQIKDKGNAYAAYYAPSVKGRFTISRDDSKNSIYLQMNSLKTEDTAVYYCHYVHYASASTVLPAFGVDAWGQGTTVTVSS VL: DIVMTQSPLSLPVTPGEPASISCKASQELVHMNRNTYLHWYQQKPGQAPRLLIYKVSNRFPGVPDRFSGSGSGTDFTLKISRVEAEDVGVYYCAQGTSVPFTFGQGTKLEIK	1 fold
H183/L072 VL P95T (antibody, name in Kabat numbering, V domains shown, Dual-Ig) VH: QVQLVESGGGLVQPGRSLRLSCAASGFTFSNAWMHWVRQAPGKGLEWVAQIKDKGNAYAAYYAPSVKGRFTISRDDSKNSIYLQMNSLKTEDTAVYYCHYVHYASASTVLPAFGVDAWGQGTTVTVSS VL: DIVMTQSPLSLPVTPGEPASISCQASQELVHMNRNTYLHWYQQKPGQAPRLLIYKVSNRFPGVPDRFSGSGSGTDFTLKISRVEAEDVGVYYCAQGTSVTFTFGQGTKLEIK	0 fold
H183/L072 VL Q24D (antibody, name in Kabat numbering, V domains shown, Dual-Ig) VH: QVQLVESGGGLVQPGRSLRLSCAASGFTFSNAWMHWVRQAPGKGLEWVAQIKDKGNAYAAYYAPSVKGRFTISRDDSKNSIYLQMNSLKTEDTAVYYCHYVHYASASTVLPAFGVDAWGQGTTVTVSS VL: DIVMTQSPLSLPVTPGEPASISCDASQELVHMNRNTYLHWYQQKPGQAPRLLIYKVSNRFPGVPDRFSGSGSGTDFTLKISRVEAEDVGVYYCAQGTSVPFTFGQGTKLEIK	0.9 fold
H183/L072 VL Q24F (antibody, name in Kabat numbering, V domains shown, Dual-Ig) VH: QVQLVESGGGLVQPGRSLRLSCAASGFTFSNAWMHWVRQAPGKGLEWVAQIKDKGNAYAAYYAPSVKGRFTISRDDSKNSIYLQMNSLKTEDTAVYYCHYVHYASASTVLPAFGVDAWGQGTTVTVSS VL: DIVMTQSPLSLPVTPGEPASISCFASQELVHMNRNTYLHWYQQKPGQAPRLLIYKVSNRFPGVPDRFSGSGSGTDFTLKISRVEAEDVGVYYCAQGTSVPFTFGQGTKLEIK	0.9 fold
H183/L072 VL Q24L (antibody, name in Kabat numbering, V domains shown, Dual-Ig) VH: QVQLVESGGGLVQPGRSLRLSCAASGFTFSNAWMHWVRQAPGKGLEWVAQIKDKGNAYAAYYAPSVKGRFTISRDDSKNSIYLQMNSLKTEDTAVYYCHYVHYASASTVLPAFGVDAWGQGTTVTVSS VL: DIVMTQSPLSLPVTPGEPASISCLASQELVHMNRNTYLHWYQQKPGQAPRLLIYKVSNRFPGVPDRFSGSGSGTDFTLKISRVEAEDVGVYYCAQGTSVPFTFGQGTKLEIK	0.9 fold
H183/L072 VL Q24H (antibody, name in Kabat numbering, V domains shown, Dual-Ig) VH: QVQLVESGGGLVQPGRSLRLSCAASGFTFSNAWMHWVRQAPGKGLEWVAQIKDKGNAYAAYYAPSVKGRFTISRDDSKNSIYLQMNSLKTEDTAVYYCHYVHYASASTVLPAFGVDAWGQGTTVTVSS VL: DIVMTQSPLSLPVTPGEPASISCHASQELVHMNRNTYLHWYQQKPGQAPRLLIYKVSNRFPGVPDRFSGSGSGTDFTLKISRVEAEDVGVYYCAQGTSVPFTFGQGTKLEIK	1 fold
H183/L072 VL Q24A (antibody, name in Kabat numbering, V domains shown, Dual-Ig) VH: QVQLVESGGGLVQPGRSLRLSCAASGFTFSNAWMHWVRQAPGKGLEWVAQIKDKGNAYAAYYAPSVKGRFTISRDDSKNSIYLQMNSLKTEDTAVYYCHYVHYASASTVLPAFGVDAWGQGTTVTVSS VL: DIVMTQSPLSLPVTPGEPASISCAASQELVHMNRNTYLHWYQQKPGQAPRLLIYKVSNRFPGVPDRFSGSGSGTDFTLKISRVEAEDVGVYYCAQGTSVPFTFGQGTKLEIK	1 fold
H183/L072 VL Q24I (antibody, name in Kabat numbering, V domains shown, Dual-Ig) VH: QVQLVESGGGLVQPGRSLRLSCAASGFTFSNAWMHWVRQAPGKGLEWVAQIKDKGNAYAAYYAPSVKGRFTISRDDSKNSIYLQMNSLKTEDTAVYYCHYVHYASASTVLPAFGVDAWGQGTTVTVSS VL: DIVMTQSPLSLPVTPGEPASISCIASQELVHMNRNTYLHWYQQKPGQAPRLLIYKVSNRFPGVPDRFSGSGSGTDFTLKISRVEAEDVGVYYCAQGTSVPFTFGQGTKLEIK	0.9 fold
H183/L072 VL P95V (antibody, name in Kabat numbering, V domains shown, Dual-Ig) VH: QVQLVESGGGLVQPGRSLRLSCAASGFTFSNAWMHWVRQAPGKGLEWVAQIKDKGNAYAAYYAPSVKGRFTISRDDSKNSIYLQMNSLKTEDTAVYYCHYVHYASASTVLPAFGVDAWGQGTTVTVSS VL: DIVMTQSPLSLPVTPGEPASISCQASQELVHMNRNTYLHWYQQKPGQAPRLLIYKVSNRFPGVPDRFSGSGSGTDFTLKISRVEAEDVGVYYCAQGTSVVFTFGQGTKLEIK	0 fold
H183/L072 VL P95W (antibody, name in Kabat numbering, V domains shown, Dual-Ig) VH: QVQLVESGGGLVQPGRSLRLSCAASGFTFSNAWMHWVRQAPGKGLEWVAQIKDKGNAYAAYYAPSVKGRFTISRDDSKNSIYLQMNSLKTEDTAVYYCHYVHYASASTVLPAFGVDAWGQGTTVTVSS VL: DIVMTQSPLSLPVTPGEPASISCQASQELVHMNRNTYLHWYQQKPGQAPRLLIYKVSNRFPGVPDRFSGSGSGTDFTLKISRVEAEDVGVYYCAQGTSVWFTFGQGTKLEIK	0 fold

Next, values leading:

fold change of affinity	Binder
1 fold	H183/L072 VL Q24S (antibody, name in Kabat numbering, V domains shown, Dual-Ig) VH: QVQLVESGGGLVQPGRSLRLSCAASGFTFSNAWMHWVRQAPGKGLEWVAQIKDKGNAYAAYYAPSVKGRFTISRDDSKNSIYLQMNSLKTEDTAVYYCHYVHYASASTVLPAFGVDAWGQGTTVTVSS VL: DIVMTQSPLSLPVTPGEPASISCSASQELVHMNRNTYLHWYQQKPGQAPRLLIYKVSNRFPGVPDRFSGSGSGTDFTLKISRVEAEDVGVYYCAQGTSVPFTFGQGTKLEIK
0.9 fold	H183/L072 VL Q24Y (antibody, name in Kabat numbering, V domains shown, Dual-Ig) VH: QVQLVESGGGLVQPGRSLRLSCAASGFTFSNAWMHWVRQAPGKGLEWVAQIKDKGNAYAAYYAPSVKGRFTISRDDSKNSIYLQMNSLKTEDTAVYYCHYVHYASASTVLPAFGVDAWGQGTTVTVSS VL: DIVMTQSPLSLPVTPGEPASISCYASQELVHMNRNTYLHWYQQKPGQAPRLLIYKVSNRFPGVPDRFSGSGSGTDFTLKISRVEAEDVGVYYCAQGTSVPFTFGQGTKLEIK
0.9 fold	H183/L072 VL Q24N (antibody, name in Kabat numbering, V domains shown, Dual-Ig) VH: QVQLVESGGGLVQPGRSLRLSCAASGFTFSNAWMHWVRQAPGKGLEWVAQIKDKGNAYAAYYAPSVKGRFTISRDDSKNSIYLQMNSLKTEDTAVYYCHYVHYASASTVLPAFGVDAWGQGTTVTVSS VL: DIVMTQSPLSLPVTPGEPASISCNASQELVHMNRNTYLHWYQQKPGQAPRLLIYKVSNRFPGVPDRFSGSGSGTDFTLKISRVEAEDVGVYYCAQGTSVPFTFGQGTKLEIK
1 fold	H183/L072 VL Q24W (antibody, name in Kabat numbering, V domains shown, Dual-Ig) VH: QVQLVESGGGLVQPGRSLRLSCAASGFTFSNAWMHWVRQAPGKGLEWVAQIKDKGNAYAAYYAPSVKGRFTISRDDSKNSIYLQMNSLKTEDTAVYYCHYVHYASASTVLPAFGVDAWGQGTTVTVSS VL: DIVMTQSPLSLPVTPGEPASISCWASQELVHMNRNTYLHWYQQKPGQAPRLLIYKVSNRFPGVPDRFSGSGSGTDFTLKISRVEAEDVGVYYCAQGTSVPFTFGQGTKLEIK
0 fold	H183/L072 VL Q24P (antibody, name in Kabat numbering, V domains shown, Dual-Ig) VH: QVQLVESGGGLVQPGRSLRLSCAASGFTFSNAWMHWVRQAPGKGLEWVAQIKDKGNAYAAYYAPSVKGRFTISRDDSKNSIYLQMNSLKTEDTAVYYCHYVHYASASTVLPAFGVDAWGQGTTVTVSS VL: DIVMTQSPLSLPVTPGEPASISCPASQELVHMNRNTYLHWYQQKPGQAPRLLIYKVSNRFPGVPDRFSGSGSGTDFTLKISRVEAEDVGVYYCAQGTSVPFTFGQGTKLEIK
1 fold	H183/L072 VL Q24M (antibody, name in Kabat numbering, V domains shown, Dual-Ig) VH: QVQLVESGGGLVQPGRSLRLSCAASGFTFSNAWMHWVRQAPGKGLEWVAQIKDKGNAYAAYYAPSVKGRFTISRDDSKNSIYLQMNSLKTEDTAVYYCHYVHYASASTVLPAFGVDAWGQGTTVTVSS VL: DIVMTQSPLSLPVTPGEPASISCMASQELVHMNRNTYLHWYQQKPGQAPRLLIYKVSNRFPGVPDRFSGSGSGTDFTLKISRVEAEDVGVYYCAQGTSVPFTFGQGTKLEIK
0.9 fold	H183/L072 VL Q24V (antibody, name in Kabat numbering, V domains shown, Dual-Ig) VH: QVQLVESGGGLVQPGRSLRLSCAASGFTFSNAWMHWVRQAPGKGLEWVAQIKDKGNAYAAYYAPSVKGRFTISRDDSKNSIYLQMNSLKTEDTAVYYCHYVHYASASTVLPAFGVDAWGQGTTVTVSS VL: DIVMTQSPLSLPVTPGEPASISCVASQELVHMNRNTYLHWYQQKPGQAPRLLIYKVSNRFPGVPDRFSGSGSGTDFTLKISRVEAEDVGVYYCAQGTSVPFTFGQGTKLEIK
1 fold	H183/L072 VL Q24T (antibody, name in Kabat numbering, V domains shown, Dual-Ig) VH: QVQLVESGGGLVQPGRSLRLSCAASGFTFSNAWMHWVRQAPGKGLEWVAQIKDKGNAYAAYYAPSVKGRFTISRDDSKNSIYLQMNSLKTEDTAVYYCHYVHYASASTVLPAFGVDAWGQGTTVTVSS VL: DIVMTQSPLSLPVTPGEPASISCTASQELVHMNRNTYLHWYQQKPGQAPRLLIYKVSNRFPGVPDRFSGSGSGTDFTLKISRVEAEDVGVYYCAQGTSVPFTFGQGTKLEIK
0.9 fold	H183/L072 VL Q24R (antibody, name in Kabat numbering, V domains shown, Dual-Ig) VH: QVQLVESGGGLVQPGRSLRLSCAASGFTFSNAWMHWVRQAPGKGLEWVAQIKDKGNAYAAYYAPSVKGRFTISRDDSKNSIYLQMNSLKTEDTAVYYCHYVHYASASTVLPAFGVDAWGQGTTVTVSS VL: DIVMTQSPLSLPVTPGEPASISCRASQELVHMNRNTYLHWYQQKPGQAPRLLIYKVSNRFPGVPDRFSGSGSGTDFTLKISRVEAEDVGVYYCAQGTSVPFTFGQGTKLEIK
